For experiment [1], the target named is BCMA (TNFRSF17) on NCI-H929 cells (UniProt Q02223). Kind of experiment: cell-based or functional assay.
Experiment [2] has the same target. In words: cell-based or functional assay. The source holds these as a separate data set.

Like-named read-outs stand apart in the source and are kept apart here.

BCMA (TNFRSF17) on NCI-H929 cells, sequence (Q02223 whole entry): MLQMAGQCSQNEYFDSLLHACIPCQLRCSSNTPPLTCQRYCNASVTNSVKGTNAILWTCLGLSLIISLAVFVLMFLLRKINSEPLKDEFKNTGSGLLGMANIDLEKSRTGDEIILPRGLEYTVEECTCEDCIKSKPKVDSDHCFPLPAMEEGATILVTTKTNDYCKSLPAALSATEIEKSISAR

In turn, “J6M0 anti-BCMA human Alya IgG1 conjugated to McMMAF (antibody)” gave an Average NCI-H929 IC50 [pM], cell kill in experiment [1] of 110 pM. In experiment [2], this substance gave an Average NCI-H929 IC50 [pM], cell kill of 74.5 pM; an EC50 (nM), Fab-pHast internalisation into NCI-H929 of 11 nM; a Fold-Change at 6 hours (10 nM), Fab-pHast internalisation of 37 fold.

(Values after patent US20250152729A1.)
